# From publication PMC314469, “Protein Interaction Networks by Proteome Peptide Scanning” (PLoS Biology, 2004)
# T1: Yhr016c SH3 (YSC84_YEAST), P32793
# T1 chain: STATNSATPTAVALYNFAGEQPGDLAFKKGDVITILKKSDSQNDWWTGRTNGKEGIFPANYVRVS
# T2: Yfr024 SH3 (LSB3_YEAST), P43603
# T2 chain: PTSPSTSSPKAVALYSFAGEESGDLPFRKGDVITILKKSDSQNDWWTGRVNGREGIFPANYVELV
# T3: Rvs167 SH3 (RV167_YEAST), P39743
# T3 chain: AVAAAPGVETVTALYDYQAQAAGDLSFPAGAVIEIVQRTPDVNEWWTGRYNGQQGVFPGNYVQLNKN
# T4: Boi2 SH3 (BOI2_YEAST), P39969
# T4 chain: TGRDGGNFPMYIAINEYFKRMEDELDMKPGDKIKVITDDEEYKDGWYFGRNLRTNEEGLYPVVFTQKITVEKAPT
# T5: Myo5 SH3 (MYO5_YEAST), Q04439
# T5 chain: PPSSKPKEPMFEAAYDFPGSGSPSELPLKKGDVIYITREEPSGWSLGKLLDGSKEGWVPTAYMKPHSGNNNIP
# T6: Boi1 SH3 (BOI1_YEAST), P38041
# T6 chain: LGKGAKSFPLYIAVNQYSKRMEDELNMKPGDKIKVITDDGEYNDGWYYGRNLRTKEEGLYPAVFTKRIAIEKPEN
# Key:
# Test in all cases: SPOT array
# [1] = biological target: T1, Yhr016c SH3 (YSC84_YEAST), P32793
# [2] = biological target: T2, Yfr024 SH3 (LSB3_YEAST), P43603
# [3] = biological target: T3, Rvs167 SH3 (RV167_YEAST), P39743
# [4] = biological target: T4, Boi2 SH3 (BOI2_YEAST), P39969
# [5] = biological target: T5, Myo5 SH3 (MYO5_YEAST), Q04439
# [6] = biological target: Sho1 SH3 (SHO1_YEAST), P40073
# [7] = biological target: T6, Boi1 SH3 (BOI1_YEAST), P38041
# Sho1 SH3 (SHO1_YEAST), P40073, sequence (P40073 295-366): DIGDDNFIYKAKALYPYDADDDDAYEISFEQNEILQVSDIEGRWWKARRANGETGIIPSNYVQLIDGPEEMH
Binder,"normalised SPOT signal, Boehringer light units (BLU); mean over the file's lines of this peptide [1]","normalised SPOT signal, Boehringer light units (BLU); mean over the file's lines of this peptide [2]","normalised SPOT signal, Boehringer light units (BLU); mean over the file's lines of this peptide [3]","normalised SPOT signal, Boehringer light units (BLU); mean over the file's lines of this peptide [4]","normalised SPOT signal, Boehringer light units (BLU); mean over the file's lines of this peptide [5]","normalised SPOT signal, Boehringer light units (BLU); mean over the file's lines of this peptide [6]","normalised SPOT signal, Boehringer light units (BLU); mean over the file's lines of this peptide [7]"
AALVKFVPSKPMSV [YBR118W 397-410],55.1,184,106,79.2,281,32.5,107
YYYYKHYPNMPPIN [YMR313C 453-466],253,391,310,273,288,59.1,227
AERAKKAPSLPEGQ [YJR016C 376-389],0,44.4,4,42.3,389,173,925
AEIVKLTPKNPFYK [YGL056C 180-193],8.4,2,99.2,30.2,102,39.3,155
AFWWKKNPKTPSDY [YKL189W 13-26],112,303,72.6,64.4,65,900,110
YVNAKLDPSLPSQY [YDR147W 90-103],17.8,91.6,41.1,10.8,97.1,29.3,71.4
YVYGRQDPKKPFFT [YNL137C 410-423],32.8,159,201,23.2,345,118,1330
AGHIKTHPNSPTPG [YKL064W 452-465],14.3,0,21.2,9,60.3,163,62.8
YVKERRPPPPPPLL [YLR425W 99-112],32.3,330,163,17.8,15900,63.5,17.5
YSYLRLLPWWPSLA [YJL083W 456-469],99.5,94.4,115,54.3,188,138,94.5
AFVPKRKPSLPQLA [YLR371W 185-198],47.2,718,294,16.6,1740,78.9,2730
AFYYKYYPVEPNSN [YFR020W 150-163],74.6,115,25.5,52.6,188,51.5,418
YWGKKFEPERPFEF [YJR137C 1187-1200],324,1160,350,266,385,460,678
ADDLKYIPPIPQDF [YOR264W 26-39],16.1,6,69.2,15.8,86.7,59.5,133
YVNPRNLPSVPNGL [YLR418C 264-277],765,952,490,59.5,180,2350,174
YVVKKNFPVSPNYT [YMR015C 408-421],39.5,163,33.5,28.9,194,332,234
